Target: the molecule itself
Experiment: crystal structure

B1: Water soluble chlorophyll binding protein from cauliflower (CaWSCP), recombinant, assembled with Chl a (natural protein)
chain: REQVKDSNGNPVKRGAKYFIQPAKSNGGGLVPAAINILPFCPLGITQTLLPYQPGLPVSFGYEPVIVGTDYIYTSTTINIEFRSEIWPVCNELSKLWAVDVSSSAAKEPAIIIGGERTAPNSLFKIEEATGAHTYKLTTSSGTVGTIPGPWLGAPQLIATNDDAKTLFVKFVKVDDDAT
**Q.** For B1, which “stoichiometry N” value is on record?
**A.** The value was 4.
